Measurements published in patent US20150110744A1 (INTER K, published 2015).

Legend:
Assay in all cases: cell-based or functional assay
Akt2 (PKB beta) = Akt2 (PKB beta) (human (printed as '(h)'), UniProt P31751 1-481, limits assumed)
c-Src (h) = c-Src (h) (human (printed as '(h)'), UniProt P12931 1-536, limits assumed)
Akt3 (PKB gamma) = Akt3 (PKB gamma) (human (printed as '(h)'), UniProt Q9Y243 1-479, limits assumed)
Sequence of Akt3 (PKB gamma) (human (printed as '(h)'), UniProt Q9Y243 1-479, limits assumed) (Q9Y243 whole entry): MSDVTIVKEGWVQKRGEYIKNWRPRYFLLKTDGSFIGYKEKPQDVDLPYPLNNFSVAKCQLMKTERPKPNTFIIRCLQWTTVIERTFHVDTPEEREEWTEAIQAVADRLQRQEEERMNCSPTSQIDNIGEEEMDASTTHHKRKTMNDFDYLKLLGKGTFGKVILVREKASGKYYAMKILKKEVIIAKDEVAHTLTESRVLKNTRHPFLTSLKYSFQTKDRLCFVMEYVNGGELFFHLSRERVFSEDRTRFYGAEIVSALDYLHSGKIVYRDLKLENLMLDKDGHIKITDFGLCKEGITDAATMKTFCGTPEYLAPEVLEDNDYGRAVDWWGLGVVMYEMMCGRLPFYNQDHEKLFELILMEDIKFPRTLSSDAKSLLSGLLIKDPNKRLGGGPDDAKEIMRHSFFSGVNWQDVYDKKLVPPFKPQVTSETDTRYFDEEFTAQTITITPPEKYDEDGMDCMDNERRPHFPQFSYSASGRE

Sequence of Akt2 (PKB beta) (human (printed as '(h)'), UniProt P31751 1-481, limits assumed) (P31751 whole entry): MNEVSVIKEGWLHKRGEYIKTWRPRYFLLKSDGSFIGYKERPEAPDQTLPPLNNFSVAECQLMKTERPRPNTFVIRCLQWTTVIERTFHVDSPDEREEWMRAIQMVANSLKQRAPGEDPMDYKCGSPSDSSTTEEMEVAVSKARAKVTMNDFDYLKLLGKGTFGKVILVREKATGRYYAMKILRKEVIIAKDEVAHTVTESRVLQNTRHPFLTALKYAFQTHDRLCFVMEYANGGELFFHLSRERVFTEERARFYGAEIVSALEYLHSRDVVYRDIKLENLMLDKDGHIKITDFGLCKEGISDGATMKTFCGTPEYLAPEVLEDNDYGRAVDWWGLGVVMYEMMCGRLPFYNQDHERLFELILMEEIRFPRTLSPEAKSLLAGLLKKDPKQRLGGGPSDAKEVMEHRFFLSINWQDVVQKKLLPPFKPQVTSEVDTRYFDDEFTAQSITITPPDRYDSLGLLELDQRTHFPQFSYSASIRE

| Binder | Inhibitory Activity (%), cell-free in vitro kinase assay, peptide 50 µM (Akt2 (PKB beta)) | Inhibitory Activity (%), cell-free in vitro kinase assay, peptide 50 µM (c-Src (h)) | Inhibitory Activity (%), cell-free in vitro kinase assay, peptide 50 µM (Akt3 (PKB gamma)) |
| --- | --- | --- | --- |
| RVKVKVVVVR [RVKVKVVVVR peptide] | 89% | 43% | 93% |
| RSKAKNPLYR [RSKAKNPLYR peptide (β6 integrin derived)] | 3% | 53% | 8% |

More lines, now with the values ahead:

| Inhibitory Activity (%), cell-free in vitro kinase assay, peptide 50 µM (Akt2 (PKB beta)) | Inhibitory Activity (%), cell-free in vitro kinase assay, peptide 50 µM (c-Src (h)) | Inhibitory Activity (%), cell-free in vitro kinase assay, peptide 50 µM (Akt3 (PKB gamma)) | Binder |
| --- | --- | --- | --- |
| 0% | 27% | 52% | RAKAKAAAAR [RAKAKAAAAR peptide] |
| 0% | 3% | 2% | RAAKAARAAK [RAAKAARAAK peptide] |
